± gives the standard deviation of the averaged measurements.

These results are taken from the supplement of paper PMC10126150.
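Note: ATP exposure 15 min at 22 °C before imaging.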

The series relates to ATP. The series can be described thus: switch fluorescence ratio, 500 uM ATP over buffer (Cy3 cluster intensity, sum of 5 cycles each) (fold (ratio)); higher = stronger signal-on switching upon ATP binding; sequences stand for … in TCGTCGGCAGCGTCAGATGTGTATAAGAGACAGTTTTTTTTTTTTTTTTTTTTTTTTT…TC. Particulars: aptamer strand: ATP DNA aptamer (quencher-CACCTGGGGGAGTATTGCGGAGGAAGG + anchor), 100 nM annealed; ATP concentration: 500 uM. Summed up: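 For every switch-domain sequence, the fluorescence ratio is the mean of per-cluster values, each being summed target-cycle Cy3 intensity over summed buffer-cycle Cy3 intensity. Clusters outside 100-1000 RFU were excluded. On a modified Illumina MiSeq flow-cell, the Cy3-labelled switching-strand clusters were annealed to 100 nM quencher-labelled ATP aptamer, imaged in selection buffer and then after 15 min with 500 uM ATP at 22 °C. Five such cycles were run, with NaOH stripping and re-annealing between them.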
In the case of TATATTTGGG, the switch fluorescence ratio was 0.998 ± 0.034.
Consider TGGGGAATGG, for which the switch fluorescence ratio came to 1 ± 0.05.
In the case of TTGGAGCCCT, the switch fluorescence ratio was determined as 1.069 ± 0.0022.
For TTGATTTTTA the value was 0.99 ± 0.044; for GTAGGGGTTT, 0.998 ± 0.034.
With TTTTATAGGT, the switch fluorescence ratio came out at 0.998 ± 0.017.
Consider TTACCGTCGC, for which the switch fluorescence ratio came out at 1.037 ± 0.0027.
Next, TAAAAGCTGG: 1.02 ± 0.078; GCCTTTTTGG: 1.02 ± 0.022.
Next, TGGATAATTT: 0.9962 ± 0.0084.
Next, TTGGTTGTCG: 1.02 ± 0.019; ATAGTAACCG: 0.997 ± 0.083.
As for GGACTCCTAG, the switch fluorescence ratio stood at 0.995 ± 0.028.
Next, AAGGGTCAGG: 1.02 ± 0.017; TATTTATTTT: 1.01 ± 0.03.
In the case of CGAAAGGGGA, the switch fluorescence ratio was 1.03 ± 0.018.
For TGCGAGGGCA the value was 1.02 ± 0.0087; for TAGAGCGGGA, 1.008 ± 0.0087; for ACGATGTGTT, 1.01 ± 0.025.
For CCTAGGGGGC the value was 1.24 ± 0.29.
As to GGTTGGTACG, the switch fluorescence ratio stood at 1.01 ± 0.019.
Next, TTTGACGAAT: 1.012 ± 0.0081; CTGGGAGGGG: 1.01 ± 0.029; CCGGTTAAAC: 1.64 ± 0.06.
Next, CAGAGGGC: 1.04 ± 0.04; CCATCAGGG: 1.16 ± 0.042.
On to GCGTTCGGCA, for which the switch fluorescence ratio was 0.991 ± 0.026.
For GAGGGTGGAA the value was 1.04 ± 0.12; for TGGGATCGTT, 0.98 ± 0.015.
For TAAGGGAGGT, the switch fluorescence ratio is 0.996 ± 0.044.
Regarding AGTAGCGGGT, the switch fluorescence ratio came out at 0.981 ± 0.026.
Turning to GACCGAAAAT, the switch fluorescence ratio worked out at 1.055 ± 0.0015.
Next, GGACGTAGTA: 1.006 ± 0.0071.
For TGGGAAGGGA the value was 1.2 ± 0.37; for GAAGACTGGG, 1.02 ± 0.051; for TTTTCTCTTA, 1.0182 ± 0.00039.
Next, GGGGGCACGT: 1.017 ± 0.0074; ACGAGTACGG: 1.1 ± 0.025; GATTTTAGTG: 0.969 ± 0.015.
As to GAGGTCTGGG, the switch fluorescence ratio turned out to be 0.978 ± 0.015.
For AGATAATTGG the value was 1.007 ± 0.0061; for CGGGGGGGGA, 1.02 ± 0.035; for ATAATCGGGA, 0.994 ± 0.034.
Next, TATATTGGGC: 0.968 ± 0.049; GACATGTTTT: 1.039 ± 0.0097; GAGTCTAGGA: 1.01 ± 0.039.
Take CGCTTGAGTC: the switch fluorescence ratio worked out at 1.025 ± 0.0062.
With CTAGTGATTG, the switch fluorescence ratio was found to be 0.99358 ± 0.0003.
With GGGGCGACGT, the switch fluorescence ratio was 0.977 ± 0.023.
Next, TAATGACCTT: 1.16 ± 0.18; GGCAGTCACG: 1.02 ± 0.014.
Next, TTGCTCGCCG: 1.08 ± 0.035.
Next, TTGGAGTCCC: 0.99 ± 0.022; GTTTTCGTCG: 1.01 ± 0.054; CGTGGGGTTG: 1.01 ± 0.054.
Take ATGGGAGGTC: the switch fluorescence ratio turned out to be 0.97 ± 0.0071.
Turning to GCTAGATGGG, the switch fluorescence ratio was 1.01 ± 0.034.
Take TTAACTTTTT: the switch fluorescence ratio was found to be 1.07 ± 0.053.
For AGCGGATGCA the value was 0.985 ± 0.02; for GTCTCTTAGG, 1.01 ± 0.014; for GGAATAGGGA, 0.982 ± 0.052.
In the case of TCGAAAGCTT, the switch fluorescence ratio was determined as 1.34 ± 0.42.
Turning to GTGAGGGGGG, the switch fluorescence ratio worked out at 1.01 ± 0.013.
For GGCGTGTGGT, the switch fluorescence ratio was determined as 0.991 ± 0.066.
For TGATATTT the value was 0.991 ± 0.022.
As to CTCCCGTCCA, the switch fluorescence ratio turned out to be 1.28 ± 0.085.
Regarding GTTGCATTCA, the switch fluorescence ratio came out at 1.01 ± 0.033.
Next, TGGTGGGACG: 1.06 ± 0.14; TTGATGCCGG: 1.05 ± 0.049.
In the case of TTCGCTAGTG, the switch fluorescence ratio came out at 0.98 ± 0.033.
For GCGTTTAAAG the value was 0.994 ± 0.023; for TTGTACGGGG, 0.985 ± 0.03.
Take ATTTATCCTC: the switch fluorescence ratio worked out at 1.05 ± 0.029.
Next, ATTGGAAGTT: 0.997 ± 0.014; TATTTATTGG: 0.999 ± 0.012; AACCCCGGGG: 1.02 ± 0.067.
As to TTTTTCTACA, the switch fluorescence ratio is 1.11 ± 0.12.
Next, TATACGCTTG: 1.001 ± 0.0079.
Next, CGAGCGATGG: 1.94 ± 0.074; GGGAGTTCTA: 0.991 ± 0.023; ATCCTGTAGT: 0.999 ± 0.044.
For the sequence GACTCCGATT, the switch fluorescence ratio worked out at 2.28 ± 0.1.
Turning to CGCGGGAGTA, the switch fluorescence ratio came to 1.02 ± 0.018.
Next, GCTTCGAAGG: 0.993 ± 0.031.
As to GAAAGGTATT, the switch fluorescence ratio came out at 0.975 ± 0.021.
As to GGTATAGTTA, the switch fluorescence ratio was determined as 1.02 ± 0.037.
For GATCTTGATG, the switch fluorescence ratio is 1.02 ± 0.036.
Take TTTAAGGAGA: the switch fluorescence ratio came out at 0.993 ± 0.037.
Consider GGTCTCTTTG, for which the switch fluorescence ratio is 0.9663 ± 0.0084.
For TCGCGATAAA the value was 1.06 ± 0.017; for TAAGTATTG, 1.01 ± 0.017; for ATTGATATGG, 0.981 ± 0.04.
Next, TCGTGGGTGG: 1.03 ± 0.056; TATGGGGGTT: 0.987 ± 0.022.
Next, TTGATGATAT: 0.986 ± 0.019.
Regarding GGTAGCAGTT, the switch fluorescence ratio was 1 ± 0.026.
For CCTAGCAAGT the value was 3.19 ± 0.92; for ACGTAATAGC, 2.07 ± 0.13; for CTTCTTTGGG, 1 ± 0.024.
For TCTGTAGGGG the value was 0.995 ± 0.013; for TTTATATGAG, 0.999 ± 0.044.
TGGGTTGGAG: the switch fluorescence ratio came to 0.9949 ± 0.0067.
As for ATGAGAAGAC, the switch fluorescence ratio was 1.02 ± 0.021.
For TCAGTTTTGT, the switch fluorescence ratio is 1.012 ± 0.0094.
For GCGGGGCGAA the value was 1.01 ± 0.012; for GGGTTTACAA, 0.989 ± 0.029; for TATTCTGGAT, 0.993 ± 0.026.
Consider ACCTGATAGT, for which the switch fluorescence ratio was determined as 1.044 ± 0.0066.
Consider TCACTGGGTC, for which the switch fluorescence ratio came to 1.05 ± 0.023.
For the sequence CGGGGAAATA, the switch fluorescence ratio was 1.01 ± 0.027.
Regarding AGTCGGGGTT, the switch fluorescence ratio was 0.979 ± 0.01.
Turning to GGGTGGGCCC, the switch fluorescence ratio came out at 0.995 ± 0.041.
In the case of TCATCTGTGC, the switch fluorescence ratio turned out to be 1.07 ± 0.029.
As to TGGGTGTTGT, the switch fluorescence ratio turned out to be 1.01 ± 0.034.
For TGTGCTATGG, the switch fluorescence ratio is 1.01 ± 0.02.
For CTTTCGATAG the value was 1.06 ± 0.049; for TGGTTCTATT, 1.02 ± 0.064; for TGAGACGAAA, 1.07 ± 0.052.
On to GGCCATATGT, for which the switch fluorescence ratio stood at 1.02 ± 0.016.
In the case of TACTATGATT, the switch fluorescence ratio came out at 1.04 ± 0.018.
